From the supplement of paper PMC11908140

B1: library; numbered along this chain (parent)
chain: MRKPRAAVGSGHRKQAASQEGRQKHAKNNSQAKPSACDGLARQPEEVVLQASVSSYHLFRDVAEVTAFRGSLLSWYDQEKRDLPWRRRAEDEMDLDRRAYAVWVSEVMLQQTQVATVINYYTGWMQKWPTLQDLASASLEEVNQLWAGLGYYSRGRRLQEGARKVVEELGGHMPRTAETLQQLLPGVGRYTAGAIASIAFGQATGVVDGNVARVLCRVRAIGADPSSTLVSQQLWGLAQQLVDPARPGDFNQAAMELGATVCTPQRPLCSQCPVESLCRARQRVEQEQLLASGSLSGSPDVEECAPNTGQCHLCLPPSEPWDQTLGVVNFPRKASRKPPREESSATCVLEQPGALGAQILLVQRPNSGLLAGLWEFPSVTWEPSEQLQRKALLQELQRWAGPLPATHLRHLGEVVHTFSHIKLTYQVYGLALEGQTPVTTVPPGARWLTQEEFHTAAVSTAMKKVFRVYQGQQPGTCMGSKRSQVSSPCSRKKPRMGQQVLDNFFRSHISTDAHSLNSAAQ

Variants of: B1
Test: 8OG:A repair function score (normalized; synonymous = 0, nonsense = -1) (normalized log-likelihood score); higher = more repair activity (WT-like)
Conditions: with 8OG:A DNA repair reporter (GFP) in HEK-293 MUTYH KO cells
Experimental: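 Saturation mutagenesis (NNN codon scan) of the MUTYH cDNA (521-aa nuclear isoform NM_001048174.1 / NP_001041639), stably expressed under doxycycline induction in HEK-293 MUTYH knockout cells. Cells were co-transfected with an 8OG:A-bearing GFP repair reporter plus mCherry and sorted 72 h later into GFP+ and GFP− bins, three replicates per tile. The Rosace log2 enrichment (GFP+ vs GFP−) was converted per tile to a normalized function score with synonymous variants centered at 0 and nonsense variants (codons 1-471) at -1; low-abundance variants were removed.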

Going from MRKPRAAVGSGHRKQAASQEGRQKHAKNNSQAKPSACDGLARQPEEVVLQASVSSYHLFRDVAEVTAFRGSLLSWYDWEKRDLPWRRRAEDEMDLDRRAYAVWVSEVMLQQTQVATVINYYTGWMQKWPTLQDLASASLEEVNQLWAGLGYYSRGRRLQEGARKVVEELGGHMPRTAETLQQLLPGVGRYTAGAIASIAFGQATGVVDGNVARVLCRVRAIGADPSSTLVSQQLWGLAQQLVDPARPGDFNQAAMELGATVCTPQRPLCSQCPVESLCRARQRVEQEQLLASGSLSGSPDVEECAPNTGQCHLCLPPSEPWDQTLGVVNFPRKASRKPPREESSATCVLEQPGALGAQILLVQRPNSGLLAGLWEFPSVTWEPSEQLQRKALLQELQRWAGPLPATHLRHLGEVVHTFSHIKLTYQVYGLALEGQTPVTTVPPGARWLTQEEFHTAAVSTAMKKVFRVYQGQQPGTCMGSKRSQVSSPCSRKKPRMGQQVLDNFFRSHISTDAHSLNSAAQ [Q78W] to MRKPRAAVGSGHRKQAASQEGRQKHAKNNSQAKPSACDGLARQPEEVVLQASVSSYHLFRDVAEVTAFRGSLLSWYDYEKRDLPWRRRAEDEMDLDRRAYAVWVSEVMLQQTQVATVINYYTGWMQKWPTLQDLASASLEEVNQLWAGLGYYSRGRRLQEGARKVVEELGGHMPRTAETLQQLLPGVGRYTAGAIASIAFGQATGVVDGNVARVLCRVRAIGADPSSTLVSQQLWGLAQQLVDPARPGDFNQAAMELGATVCTPQRPLCSQCPVESLCRARQRVEQEQLLASGSLSGSPDVEECAPNTGQCHLCLPPSEPWDQTLGVVNFPRKASRKPPREESSATCVLEQPGALGAQILLVQRPNSGLLAGLWEFPSVTWEPSEQLQRKALLQELQRWAGPLPATHLRHLGEVVHTFSHIKLTYQVYGLALEGQTPVTTVPPGARWLTQEEFHTAAVSTAMKKVFRVYQGQQPGTCMGSKRSQVSSPCSRKKPRMGQQVLDNFFRSHISTDAHSLNSAAQ [Q78Y], the “8OG:A repair function score” value falls from -0.0301 to -0.12.

Going from MRKPRAAVGSGHRKQAASQEGRQKHAKNNSQAKPSACDGLARQPEEVVLQASVSSYHLFRDVAEVTAFRGSLLSWYDVEKRDLPWRRRAEDEMDLDRRAYAVWVSEVMLQQTQVATVINYYTGWMQKWPTLQDLASASLEEVNQLWAGLGYYSRGRRLQEGARKVVEELGGHMPRTAETLQQLLPGVGRYTAGAIASIAFGQATGVVDGNVARVLCRVRAIGADPSSTLVSQQLWGLAQQLVDPARPGDFNQAAMELGATVCTPQRPLCSQCPVESLCRARQRVEQEQLLASGSLSGSPDVEECAPNTGQCHLCLPPSEPWDQTLGVVNFPRKASRKPPREESSATCVLEQPGALGAQILLVQRPNSGLLAGLWEFPSVTWEPSEQLQRKALLQELQRWAGPLPATHLRHLGEVVHTFSHIKLTYQVYGLALEGQTPVTTVPPGARWLTQEEFHTAAVSTAMKKVFRVYQGQQPGTCMGSKRSQVSSPCSRKKPRMGQQVLDNFFRSHISTDAHSLNSAAQ [Q78V] to MRKPRAAVGSGHRKQAASQEGRQKHAKNNSQAKPSACDGLARQPEEVVLQASVSSYHLFRDVAEVTAFRGSLLSWYDQCKRDLPWRRRAEDEMDLDRRAYAVWVSEVMLQQTQVATVINYYTGWMQKWPTLQDLASASLEEVNQLWAGLGYYSRGRRLQEGARKVVEELGGHMPRTAETLQQLLPGVGRYTAGAIASIAFGQATGVVDGNVARVLCRVRAIGADPSSTLVSQQLWGLAQQLVDPARPGDFNQAAMELGATVCTPQRPLCSQCPVESLCRARQRVEQEQLLASGSLSGSPDVEECAPNTGQCHLCLPPSEPWDQTLGVVNFPRKASRKPPREESSATCVLEQPGALGAQILLVQRPNSGLLAGLWEFPSVTWEPSEQLQRKALLQELQRWAGPLPATHLRHLGEVVHTFSHIKLTYQVYGLALEGQTPVTTVPPGARWLTQEEFHTAAVSTAMKKVFRVYQGQQPGTCMGSKRSQVSSPCSRKKPRMGQQVLDNFFRSHISTDAHSLNSAAQ [E79C], the “8OG:A repair function score” value falls from 0.00652 to -0.0344.

First: MRKPRAAVGSGHRKQAASQEGRQKHAKNNSQAKPSACDGLARQPEEVVLQASVSSYHLFRDVAEVTAFRGSLLSWYDQDKRDLPWRRRAEDEMDLDRRAYAVWVSEVMLQQTQVATVINYYTGWMQKWPTLQDLASASLEEVNQLWAGLGYYSRGRRLQEGARKVVEELGGHMPRTAETLQQLLPGVGRYTAGAIASIAFGQATGVVDGNVARVLCRVRAIGADPSSTLVSQQLWGLAQQLVDPARPGDFNQAAMELGATVCTPQRPLCSQCPVESLCRARQRVEQEQLLASGSLSGSPDVEECAPNTGQCHLCLPPSEPWDQTLGVVNFPRKASRKPPREESSATCVLEQPGALGAQILLVQRPNSGLLAGLWEFPSVTWEPSEQLQRKALLQELQRWAGPLPATHLRHLGEVVHTFSHIKLTYQVYGLALEGQTPVTTVPPGARWLTQEEFHTAAVSTAMKKVFRVYQGQQPGTCMGSKRSQVSSPCSRKKPRMGQQVLDNFFRSHISTDAHSLNSAAQ [E79D]
Second: MRKPRAAVGSGHRKQAASQEGRQKHAKNNSQAKPSACDGLARQPEEVVLQASVSSYHLFRDVAEVTAFRGSLLSWYDQAKRDLPWRRRAEDEMDLDRRAYAVWVSEVMLQQTQVATVINYYTGWMQKWPTLQDLASASLEEVNQLWAGLGYYSRGRRLQEGARKVVEELGGHMPRTAETLQQLLPGVGRYTAGAIASIAFGQATGVVDGNVARVLCRVRAIGADPSSTLVSQQLWGLAQQLVDPARPGDFNQAAMELGATVCTPQRPLCSQCPVESLCRARQRVEQEQLLASGSLSGSPDVEECAPNTGQCHLCLPPSEPWDQTLGVVNFPRKASRKPPREESSATCVLEQPGALGAQILLVQRPNSGLLAGLWEFPSVTWEPSEQLQRKALLQELQRWAGPLPATHLRHLGEVVHTFSHIKLTYQVYGLALEGQTPVTTVPPGARWLTQEEFHTAAVSTAMKKVFRVYQGQQPGTCMGSKRSQVSSPCSRKKPRMGQQVLDNFFRSHISTDAHSLNSAAQ [E79A]
The “8OG:A repair function score” value of the first is lower: -0.145 for the first, 0.00477 for the second.
